Test results from PMC11446282 (2024).

B1: FAM122A [human (endogenous in HeLa)] / B55α WT (immunopurified, Fig. 2) [not stated] (parent complex)
chain 1: MAQEKMELDLELPPGTGGSPAEGGGSGGGGGLRRSNSAPLIHGLSDTSPVFQAEAPSARRNSTTFPSRHGLLLPASPVRMHSSRLHQIKQEEGMDLINRETVHEREVQTAMQISHSWEESFSLSDNDVEKSASPKRIDFIPVSPAPSPTRGIGKQCFSPSLQSFVSSNGLPPSPIPSPTTRFTTRRSQSPINCIRPSVLGPLKRKCEMETEYQPKRFFQGITNMLSSDVAQLSDPGVCVSSDTLDGNSSSAGSSCNSPAKVSTTTDSPVSPAQAASPFIPLDELSSK
chain 2: MAGAGGGNDIQWCFSQVKGAVDDDVAEADIISTVEFNHSGELLATGDKGGRVVIFQQEQENKIQSHSRGEYNVYSTFQSHEPEFDYLKSLEIEEKINKIRWLPQKNAAQFLLSTNDKTIKLWKISERDKRPEGYNLKEEDGRYRDPTTVTTLRVPVFRPMDLMVEASPRRIFANAHTYHINSISINSDYETYLSADDLRINLWHLEITDRSFNIVDIKPANMEELTEVITAAEFHPNSCNTFVYSSSKGTIRLCDMRASALCDRHSKLFEEPEDPSNRSFFSEIISSISDVKFSHSGRYMMTRDYLSVKIWDLNMENRPVETYQVHEYLRSKLCSLYENDCIFDKFECCWNGSDSVVMTGSYNNFFRMFDRNTKRDITLEASRENNKPRTVLKPRKVCASGKRKKDEISVDSLDFNKKILHTAWHPKENIIAVATTNNLYIFQDKVN
B2: CDCA4 (found with purified B55 variants) [human] / B55α WT (immunopurified, Fig. 2) [not stated] (parent complex)
chain 1: MFARGLKRKCVGHEEDVEGALAGLKTVSSYSLQRQSLLDMSLVKLQLCHMLVEPNLCRSVLIANTVRQIQEEMTQDGTWRTVAPQAAERAPLDRLVSTEILCRAAWGQEGAHPAPGLGDGHTQGPVSDLCPVTSAQAPRHLQSSAWEMDGPRENRGSFHKSLDQIFETLETKNPSCMEELFSDVDSPYYDLDTVLTGMMGGARPGPCEGLEGLAPATPGPSSSCKSDLGELDHVVEILVET
chain 2: B1 chain 2
B3: IER2 (found with purified B55 variants) [human] / B55α WT (immunopurified, Fig. 2) [not stated] (parent complex)
chain 1: MEVQKEAQRIMTLSVWKMYHSRMQRGGLRLHRSLQLSLVMRSARELYLSAKVEALEPEVSLPAALPSDPRLHPPREAESTAETATPDGEHPFPEPMDTQEAPTAEETSACCAPRPAKVSRKRRSSSLSDGGDAGLVPSKKARLEEKEEEEGASSEVADRLQPPPAQAEGAFPNLARVLQRRFSGLLNCSPAAPPTAPPACEAKPACRPADSMLNVLVRAVVAF
chain 2: B1 chain 2
B4: PME1 (found with purified B55 variants) [human] / B55α WT (immunopurified, Fig. 2) [not stated] (parent complex)
chain 1: MSALEKSMHLGRLPSRPPLPGSGGSQSGAKMRMGPGRKRDFSPVPWSQYFESMEDVEVENETGKDTFRVYKSGSEGPVLLLLHGGGHSALSWAVFTAAIISRVQCRIVALDLRSHGETKVKNPEDLSAETMAKDVGNVVEAMYGDLPPPIMLIGHSMGGAIAVHTASSNLVPSLLGLCMIDVVEGTAMDALNSMQNFLRGRPKTFKSLENAIEWSVKSGQIRNLESARVSMVGQVKQCEGITSPEGSKSIVEGIIEEEEEDEEGSESISKRKKEDDMETKKDHPYTWRIELAKTEKYWDGWFRGLSNLFLSCPIPKLLLLAGVDRLDKDLTIGQMQGKFQMQVLPQCGHAVHEDAPDKVAEAVATFLIRHRFAEPIGGFQCVFPGC
chain 2: B1 chain 2

Variants of: B1
Assay: immunopurification of YFP-B55α variants (IP: YFP), Western blot quantification; read off a plot

| Variant | percent of parent |
| --- | --- |
| chain 2 Y337A | ~130% |
| chain 2 H179A | ~70% |
| chain 2 D197A | ~0% |
| chain 2 I284A | ~97% |
| chain 2 F280A | ~140% |
| chain 2 L225A | ~130% |
| chain 2 F343A | ~90% |
| chain 2 S287A | ~63% |
| chain 2 V228A | ~100% |
| chain 2 L198A | ~0% |
| chain 2 T230A | ~93% |
| chain 2 Y178A | ~5% |
| chain 2 D340A | ~77% |

Variants of: B2
Assay: as above

| Variant | percent of parent |
| --- | --- |
| chain 2 I284A | ~160% |
| chain 2 F280A | ~110% |
| chain 2 T230A | ~58% |
| chain 2 H179A | ~93% |
| chain 2 F343A | ~28% |
| chain 2 S287A | ~130% |
| chain 2 Y178A | ~90% |
| chain 2 V228A | ~78% |
| chain 2 D340A | ~28% |
| chain 2 D197A | ~80% |
| chain 2 L198A | ~40% |
| chain 2 Y337A | ~50% |
| chain 2 L225A | ~75% |

Variants of: B3
Assay: as above

| Variant | percent of parent |
| --- | --- |
| chain 2 T230A | ~50% |
| chain 2 V228A | ~70% |
| chain 2 D197A | ~7% |
| chain 2 Y337A | ~2% |
| chain 2 S287A | ~67% |
| chain 2 H179A | ~140% |
| chain 2 Y178A | ~55% |
| chain 2 I284A | ~65% |
| chain 2 F280A | ~83% |
| chain 2 L198A | ~3% |
| chain 2 F343A | ~30% |
| chain 2 D340A | ~2% |
| chain 2 L225A | ~25% |

Variants of: B4
Assay: as above

| Variant | percent of parent |
| --- | --- |
| chain 2 L198A | ~2% |
| chain 2 I284A | ~13% |
| chain 2 D197A | ~3% |
| chain 2 H179A | ~170% |
| chain 2 F343A | ~3% |
| chain 2 D340A | ~50% |
| chain 2 S287A | ~4% |
| chain 2 L225A | ~3% |
| chain 2 Y337A | ~53% |
| chain 2 T230A | ~3% |
| chain 2 Y178A | ~13% |
| chain 2 F280A | ~130% |
| chain 2 V228A | ~9% |
